± gives the half width of the 95% confidence interval.
Key:
[1] = folding stability dG unfold from trypsin proteolysis; higher = more stable
In short: (§1)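 Mini-proteins designed to be under 80 residues and free of cysteine were carried in a PA-tagged cDNA display construct and digested with trypsin and with chymotrypsin. Each protease was applied at 11 threefold-diluted concentrations, alongside a no-protease condition, before sequencing. K50 came from Bayesian fitting of the sequencing counts, and unfolding free energy was obtained by comparing it with a sequence-predicted unfolded-state K50 and a shared folded-state K50, for each protease separately or for both together. Designs were retained only if their AlphaFold2 dimer inter-PAE exceeded 15.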

[2] = folding stability dG unfold (combined trypsin and chymotrypsin); higher = more stable
In short: as §1

[3] = folding stability dG unfold from chymotrypsin proteolysis; higher = more stable
In short: as §1

| Sequence | folding stability dG unfold [1] | folding stability dG unfold [2] | folding stability dG unfold [3] |
| --- | --- | --- | --- |
| SAGGSAGGSAGGWYIYFPNHYYPIKKITINPGGNIEIEFPNGNERTFDNVSIMPPGQEISAGGSAGGSAGGS [r10_1151_TrROS] | 0.178 ± 0.047 kcal/mol | 0.219 ± 0.097 kcal/mol | 0.105 ± 0.14 kcal/mol |
| SAGGSADPGKPIQIAIMIHIDPEPGRIEIPIYIMDDNRVRPVSIEFTPAGTLKIEVGNKEIEIPIKSAGGSA [r15_507_TrROS] | 2.46 ± 0.17 kcal/mol | 2.24 ± 0.16 kcal/mol | 2.01 ± 0.042 kcal/mol |
| SAGGSETVRVEVEVELENGYRVRVEMEFDLETKEMTMRVEVEPVLELSPEELEKLKKLLEELGIEVSAGGSA [r2_304_TrROS_Hall] | 2.91 ± 0.27 kcal/mol | 3.12 ± 0.17 kcal/mol | 3.43 ± 0.11 kcal/mol |
| SPDIEIEPMPNGSYMIEVPVPPDAESIEVPFPGNGRPVTIHRDPDKIHIFFNNPEQIEEIAEAIADGKPISA [r9_515_TrROS] | 0.0692 ± 0.047 kcal/mol | 0.15 ± 0.15 kcal/mol | 0.2 ± 0.21 kcal/mol |
| SAGGDVTISIMIFVWPGWTEEQYKEMAKEVAKTIARQLAQKNPDLNENIDIEDIEVTIIPMEGDPDYFSAGG [r13_128_TrROS] | 1.91 ± 0.049 kcal/mol | 1.68 ± 0.19 kcal/mol | 1.35 ± 0.1 kcal/mol |
| SAMKLVTLEDGTVIETENLSLEEIKERFGGGSISVSDVPPSPAFRVESEEEREALEKEVGPGFVVVEEGSAG [r14_445_JUSTAS] | 0.578 ± 0.032 kcal/mol | 0.414 ± 0.082 kcal/mol | 0.108 ± 0.11 kcal/mol |
| SAGGSAGGSAGGELKAKFETFPSPYGKVILAEAEFEEPNLLAAIVIDEDGVPHLLVVSPDSAGGSAGGSAGG [r7_187_TrMRF] | 1.13 ± 0.064 kcal/mol | 0.952 ± 0.12 kcal/mol | 0.858 ± 0.076 kcal/mol |
| SAGGSAGGSASITYENGYATITLKVPEGTVRIVDLATNEVIEIKPGDTVTIRVKIPPPPPESAGGSAGGSAG [r3_185_TrROS_Hall] | 2.31 ± 0.095 kcal/mol | 1.73 ± 0.18 kcal/mol | 1.55 ± 0.059 kcal/mol |
| SAGGSAGGSMEPRPVVITFRDPEGNFIGTVELPAEFESEEEALAAAEAVRAANPGYTVEIEGLSAGGSAGGS [r20_201_JUSTAS] | 1.67 ± 0.084 kcal/mol | 1.87 ± 0.07 kcal/mol | 1.98 ± 0.033 kcal/mol |
| SAGGSAGGSAGGPRMTVVDLDPEKGDHLYLVEIPDTNEVVLVSSSELLRLAEAGPVELKGSAGGSAGGSAGG [r7_452_TrMRF] | -0.107 ± 0.27 kcal/mol | 0.129 ± 0.14 kcal/mol | 0.115 ± 0.062 kcal/mol |
| SAGGSAGGSAKKTLTVKPGQTVTVKNKKTGKTYTATVEKDKDGNLTVKLENGKTYTINLKDLSAGGSAGGSA [r18_169_TrROS_Hall] | 0.967 ± 0.083 kcal/mol | 1.8 ± 0.093 kcal/mol | 2.15 ± 0.078 kcal/mol |
| SAGGKVVVLTFPKDNPEEVREALAKLPNVVRVEVEKVNDRYLAVAELEGELAVFVSLPDGRYVLLVLGSAGG [r13_907_TrMRF] | 2.36 ± 0.091 kcal/mol | 2.73 ± 0.043 kcal/mol | 2.994 ± 0.021 kcal/mol |
| SAGGSAGGSMELVIKTVTVNSPSKSPEELAKEIEEKYGVKILKVEVTEDPEGGVTVTATIINKSAGGSAGGS [r12_359_JUSTAS] | 1.72 ± 0.065 kcal/mol | 1.49 ± 0.041 kcal/mol | 1.34 ± 0.015 kcal/mol |
| SAGGSAGGSAKMIIRIRNKNGKIIELTLEEVAKKLGLSKEEMTAEEILKKLKENIEKVEILPSAGGSAGGSA [r18_403_TrROS_Hall] | 2.9 ± 0.047 kcal/mol | 3.1 ± 0.07 kcal/mol | 3.18 ± 0.048 kcal/mol |
| SAGGSAGGSAGSMLLSLSIASVETTETTEIDPETGEKRKVTTTTITIPGTGQTITLTETVESAGGSAGGSAG [r3_424_JUSTAS] | 1.83 ± 0.058 kcal/mol | 1.28 ± 0.065 kcal/mol | 0.532 ± 0.07 kcal/mol |
| SAGGSAEPLVYELPDGTVVLLPPTTAVVYHRLSDGRVVVVGLEVDDPPDPEKALARARAVVEALPDSAGGSA [r15_748_TrMRF] | 0.067 ± 0.25 kcal/mol | 1.26 ± 0.13 kcal/mol | 1.6 ± 0.11 kcal/mol |
| SAGGSASVKVEETVEFLPGGVVKTTTRTFFPDGTVTTTDTVTALPPVPVYDISSPENLSPALERLASAGGSA [r15_1018_JUSTAS] | 0.543 ± 0.028 kcal/mol | 0.909 ± 0.052 kcal/mol | 1.16 ± 0.026 kcal/mol |
| SAGGSAGGSAGGGMTPVTTTTTVTVSPDATPVNFTTPDGTTVTVTPVPSSDTATVTTTVSSAGGSAGGSAGG [r7_796_JUSTAS] | 1.24 ± 0.06 kcal/mol | 0.724 ± 0.06 kcal/mol | 0.104 ± 0.03 kcal/mol |
| SAGGSAGGGPPLPPPVLVLPARVERVFYDPVTGELTVETVDFPVVIRPDGSVYLGDRWIPPELLSAGGSAGG [r6_514_TrMRF] | 1.23 ± 0.046 kcal/mol | 1.61 ± 0.2 kcal/mol | 1.85 ± 0.12 kcal/mol |
| SAGGSAGGSAGGSMTVTVTLKDGSTRTFAVPADAPLTLEQLEAAGYPAADIAEVTVTAESAGGSAGGSAGGS [r10_565_JUSTAS] | 1.88 ± 0.049 kcal/mol | 2.96 ± 0.038 kcal/mol | 3.292 ± 0.021 kcal/mol |
| SAGGSAGGSLSDLPPGVELIAVGDDVVAVRRPDGSVLVFVRERDRVFVRELSPDVSIEEALADSAGGSAGGS [r12_605_TrMRF] | 1.32 ± 0.029 kcal/mol | 1.44 ± 0.057 kcal/mol | 1.52 ± 0.068 kcal/mol |

| Sequence | folding stability dG unfold [1] | folding stability dG unfold [2] | folding stability dG unfold [3] |
| --- | --- | --- | --- |
| KMEIKIEVEKVKDEETGEEYIEVKIVVKKENVEEALEKVKKILEEEFNYEIVDVKVEKKDDYVVITVKIRLS [r1_337_TrROS_Hall] | 3.15 ± 0.22 kcal/mol | 2.89 ± 0.53 kcal/mol | 2.21 ± 0.41 kcal/mol |
| SAGGSAGGSMGVTVTSEEDPEVRRVRETIETPSGSVVERDMVLTRPPDGPLLREALSEKVFRPSAGGSAGGS [r12_758_JUSTAS] | -0.324 ± 0.15 kcal/mol | -0.582 ± 0.28 kcal/mol | -1.18 ± 0.48 kcal/mol |
| SAGGGPLKPILLKVTAKVEKNGKLLEVEAEIAVPLPNKPITLEEIRKILEEALPPDVKIVSLELDPESAGGS [r16_407_TrMRF] | 2.99 ± 0.2 kcal/mol | 2.67 ± 0.21 kcal/mol | 2.6 ± 0.075 kcal/mol |
| SAGWRQILDMARNMLENGHMFRIEWTGPGGKPQEFRIPLDDIETLLDNWPDPDDIRSVDIEVYPPGEPISAG [r5_957_TrROS] | 1.72 ± 0.021 kcal/mol | 2.22 ± 0.062 kcal/mol | 2.45 ± 0.056 kcal/mol |
| SAGGMKTLTITLTVRNPATQETLTLTITVPEGMSEEELQALLKQLQELVEALLQLPPPPPPPPPELESAGGS [r16_191_TrROS_Hall] | 3.16 ± 0.12 kcal/mol | 4.01 ± 0.11 kcal/mol | 4.25 ± 0.066 kcal/mol |
| SAGGMKEIAKALGIKPEDVKIEEEEIEVNGKKVKKIKITVKDKKTKKEYKIELTIVYDKNGKIVKIELSAGG [r13_358_TrROS_Hall] | 3.61 ± 0.15 kcal/mol | 4.63 ± 0.57 kcal/mol | 4.72 ± 0.28 kcal/mol |
| SAGDVVEIEITYWVPPDEMTVDEFVDHIMSMLPGVKVKSIEIDEIHPYPDGWYEVTVNYTIEVPPGQEISAG [r5_682_TrROS] | 2.53 ± 0.39 kcal/mol | 2.81 ± 0.16 kcal/mol | 2.82 ± 0.12 kcal/mol |
| SAGGSAGGPNIEIMSMFKHPNGTIVIFIRTPEGRYIVIKIPPPGNIKIVGVYPLPPGDPLLERLSAGGSAGG [r6_715_TrROS] | 2.43 ± 0.17 kcal/mol | 3.06 ± 0.2 kcal/mol | 3.14 ± 0.12 kcal/mol |
| SAGGSAGGSNMPIKNVELHPLPNGWYLIKIRYGGKTRTFLFPPGAPFEIPLPPGMEIDIYPLNSAGGSAGGS [r12_373_TrROS] | 3.73 ± 0.066 kcal/mol | 3.84 ± 0.043 kcal/mol | 3.933 ± 0.038 kcal/mol |
| SAGGSAALVLSREEFDGEVLLTLRDPETGEELLARLTYVPEENLVRLETTFPDGSTTTSVLPASALSAGGSA [r15_1055_JUSTAS] | 1.794 ± 0.017 kcal/mol | 1.75 ± 0.033 kcal/mol | 1.59 ± 0.059 kcal/mol |
| SAAPGAEVIEEKEIEVGGYTVTIVYNKDTDTVTIFVRNPDGTITEFTIDADTLEITEVREIKLPPGVELSAG [r14_676_TrROS_Hall] | 2.24 ± 0.084 kcal/mol | 3 ± 0.12 kcal/mol | 3.35 ± 0.06 kcal/mol |
| SAGGSAGGSAGAYRVEVNVELTPEAREAFLKNPELPADAEIPVVVSGRVEPVPLGPEGVLSAGGSAGGSAGG [r17_194_TrMRF] | -0.58 ± 0.2 kcal/mol | -0.143 ± 0.12 kcal/mol | 0.0793 ± 0.14 kcal/mol |
| SAAMLFEKKTGIKVDVSLVPPEQISQLPPSYTVTPEGDVVVVTTVTTLPLSSYPVKLPPVYDPNTLKLLSAG [r14_126_JUSTAS] | 0.146 ± 0.12 kcal/mol | -0.0133 ± 0.11 kcal/mol | -0.376 ± 0.19 kcal/mol |
| SAGGSFWVFVIEISVKFEQYGDPDGNWKFEIEKVDVKITEIIPIPPEMMDKLREAKAEGMEPEEILSAGGSA [r2_327_TrROS] | 1.65 ± 0.15 kcal/mol | 3.09 ± 0.39 kcal/mol | 3.49 ± 0.11 kcal/mol |
| SAGGSAGGSEEILKALGVEPGDEVEIEMTPEELEELLALPGVEPVRVEERPDGRLRVRIRILPSAGGSAGGS [r12_750_TrROS_Hall] | 3.14 ± 0.11 kcal/mol | 2.99 ± 0.1 kcal/mol | 2.93 ± 0.077 kcal/mol |
| SAGGSAGGSAGGMTVTVEISIPVTVETSFFKPNKPYFKKKTINKKITIEIPNGEPLSLLSAGGSAGGSAGGS [r10_633_JUSTAS] | 0.492 ± 0.14 kcal/mol | 0.249 ± 0.13 kcal/mol | -0.0788 ± 0.2 kcal/mol |
| SAGGSAGGSASSLEESLRAELPEGKPARIEVKVELEKTPNGKLKVKEVKVTVTLPNGPVVGSAGGSAGGSAG [r3_247_JUSTAS] | 0.572 ± 0.077 kcal/mol | 1.24 ± 0.11 kcal/mol | 1.52 ± 0.072 kcal/mol |
| PPTSPEFRKALENIKKVDIEIEPYPNDGMVRMSIELKFPDKPVEIDIHYQYDPDGKINGMWARLDGKWIPIS [r1_274_TrROS] | 1.1 ± 0.091 kcal/mol | 1.85 ± 0.2 kcal/mol | 1.99 ± 0.079 kcal/mol |
| SAGGSAGGMKVTLTPVSGEKYEIEVESEEEAKEKVEKLAKKLGIPGEVKVTIEKGDKTYELTIISAGGSAGG [r6_532_JUSTAS] | 2.98 ± 0.2 kcal/mol | 2.39 ± 0.42 kcal/mol | 2.5 ± 0.11 kcal/mol |
| SAGGSAGGSAGGKLIVLPVTSDEVFDFGDGPIPVPAGSIVVLEISPDGAKALVFSPEDLSAGGSAGGSAGGS [r10_353_TrMRF] | 1.12 ± 0.021 kcal/mol | 1 ± 0.087 kcal/mol | 0.886 ± 0.065 kcal/mol |
| SGSPDELEVVESEETVNIPPEELEAKYGIKVPENSTVVIKTKTLKPPSGNDIVEPEIKIYDPVTNEWIELSA [r9_349_JUSTAS] | -0.537 ± 0.13 kcal/mol | -0.47 ± 0.25 kcal/mol | -0.474 ± 0.27 kcal/mol |
